According to a protein production outcome set (Wang et al. 2014):

Experiment: label from the status in PepcDB records

Sequence | protein production
MSGTGEVRGMRAARIAAGAVIPGELALAVCLAAGVRPPVWATAAAEAVALAVLMLEAWVLRSLYASRRAQGLEPPAALRAAVRAVVPARVRRLLVHELRAAASLGRWAARRKHGVRPGDHVAGYTGPQTAMMYGLIFVSVIETVALAVLIPWPVVHRVLLVLDVYGVLMMLGLHAACVTRPHVARPDGSLRIRYGALFDLAVPADAVASVRVDRCYPQGRLVTLSEKGVLDLIVAGQTTVTLELTRPLVFTRPLGGRGEARTIRFHADDPRALVGALRRPALT | failed
MESRWNDEDAARFVEAARAEGQSEALGLRIYTSRLIGSDPDLVLHGGGNTSVKIRSDEGEQLMHIKGSGWDLDTIEAPGLPAVRLASLLEARNTPKLSDPDMVLLLRASLIEKDAPNPSVEALLHAFIPFDYVDHTHATAVLALADQPNMRDAIRRIYGDRLAYVPYVMPGFDLSIAADRIYRSHSDCEGLWLENHGLFSFANDARASYDLMIEFVTLAEQELARAGVALSGPQPNDGER | failed
MADKIKVSLLGSTGMVGQKMVKMLAKHPYLELVKVSASPSKIGKKYKDAVKWIEQGDIPEEVQDLPIVSTNYEDHKDVDVVLSALPNELAESIELELVKNGKIVVSNASPFRMDPDVPLINPEINWEHLELLKFQKERKGWKGILVKNPNCTAAIMSMPIKPLIEIATKSKIIITTLQAVSGAGYNGISFMAIEGNIIPYIKGEEDKIAKELTKLNGKLENNQIIPANLDSTVTSIRVPTRVGHMGVINIVTNERINIEEIKKTLKNFKSLPQQKNLPTAPKQPIIVRDEEDRPQPIIDVNAESGMAVTVGRIRHENNVLRLVVLGDNLVRGAAGITILTVEVMKELGYI | not failed
MLETLHLTPLDRWIDAWLAHQRALGRAYDNEGWILGHLRRFIVSSEAGDLDQKGFDRWCASLRHLSPTTRRGRQFVVRKLCLFRRRAEPGCFVPDSIYFARKLPYRRPVILEPAQVSRMLAAADGLAPTTNSPLLPAVMRLATIILYTAGLRRGELARLTLDDVEPQSGLLRIRQSKFHKSRLVPLSPDAAGALRTYLHLRLAPSFNADPSSALLCCGRAGRRGYTGAGLGQAINRLFVTADVRDSEGRLPRVHDIRHSFGVQALIRWYRAGADVQSCLPSLAIYMGHVSVVSTAHYLHFVPTMRELASSRFEAAFGNIVVEAKP | failed
MYLAASADTKPLPDSDDEEDQHTNAVSIPIAVHNMASALLQVEQAIGKRFLKEPYGMKKWDPKQEALKLACDSRLHQWEVSLMESTSFAQVFLHLNILHDCIQWRRSTNKSLCKVCRRGSDPEKMLLCDECNAGTHMFCLKPKLRSVPPGNWYCNDCVKSLGLSNG | failed
MKRVAIFASGSGTNAEAIIQSQKAGQLPCEVALLITDKPGAKVVERVKVHEIPVCALDPKTYPSKEAYEIEVVQQLKEKQIDFVVLAGYMRLVGPTLLGAYEGRIVNIHPSLLPAFPGLHAIEQAIRANVKVTGVTIHYVDEGMDTGPIIAQEAVSIEEEDTLETLTTKIQAVEHRLYPATLHKLLSK | not failed
GLQAEWMQMSSLGTVDAPNFIVGNPWDDKLIFKLLSGLSKPVSSYPNTFEWQCKLPAIKPKTEFQLGSKLVYVHHLLGEGAFAQVYEATQGDLNDAKNKQKFVLKVQKPANPWEFYIGTQLMERLKPSMQHMFMKFYSAHLFQNGSVLVGELYSYGTLLNAINLYKNTPEKVMPQGLVISFAMRMLYMIEQVHDCEIIHGDIKPDNFILGNGFLEQDDEDDLSAGLALIDLGQSIDMKLFPKGTIFTAKCETSGFQCVEMLSNKPWNYQIDYFGVAATVYCMLFGTYMKVKNEGGECKPEGLFRRLPHLDMWNEFFHVMLNIPDCHHLPSLDLLRQKLKKVFQQHYTNKIRALRNRLIVLLLECKRSRK | failed
MNTSCTSYHSMALSESQRDILGMIATNHQLHDILTAICLMIDAQDPGTLCSILLTDAQGKHLLKGAAPGLPPAYSDAIHGLPIGPQEGTCGTAAFRRELVVTADIARDPSWERFRSLALGYNLRSCWSLPLLSHEGSVLGTFALYQDQAIAPSEVQIHRLTCAAQLAAIAIRH | failed
MAASPSTYAFNGESKETGNDSSKLSKAPATKGGKPHIIFIMSDQHRGDALHCMGNKAVISPNIDKLAQEGSLFVCGYSSAPSSTPARAGLLTGMSPWHHGMLGYGKVASKYKYEMPQMLRDLGYYTFGIGKMHWFPQKALHGFHATLVDESGRSETRDFISDYREWFQLQAPGKNPDLTGIGWNNHNAGTYKLEERLHPTAWTGQTACELIRNYDSDQPLFLKVSFARPHSPYDPPKRYLDMYEKVDIPVPFVGDWCGKYAERKDPERVSKDAAFANLGEEYAVNSRRHYYANVTFIDDQIGQIIQTLKEKGMYENAIICYTADHGDMLGDHYHWRKTYAYEGSAKIPYIIKWPSAMTTQAIRGKRIEQPVELRDFLPTFIELAGGTVPDDMDGKSLVALASGNKNGWRKYIDLEHATCYSADNYWCALTDGKMKYIWFIHTGEEQLFDLSSDPGEQKNLSGNSRYADRLVEMRKAMVDHLQERGTEFVKDGKLAVRDQTLLYSPNYPKD | failed
MTADLFDGLDDAPRRQDIAPGAALLSGFARANERELLAAIDAVVARAPFRHMMTPGGHTMSVAMTSCGSVGWVTDRRGYRYSPNDPDSATPWPKMPAVLRDLAQRAAADVGFAGFDPDACLINRYVPGAKMALHQDKDEADFSAPIVSVSLGLPAIFQFGGMARSDKPRRYELRHGDVLVWGGPSRLVYHGVLTLKDGEHPLLGRQRINLTFRKAL | failed
MYEDNAACIAQLKDGYIKGDRTKHILPKFFFTHDLQKSGDVRVLQIRSNDNLSDLFTKALPTATFKKLVYRIGLRRLKDLDEYTHKGE | failed
MRIYRTLTTYIARTYLTALVGATLVVGALLMLFDVIEITRRSGSKAIGIDVVLEMALYHLPMSLQSALPFVFMGGAVMIFWKLARSSELVVIRAAGLSVWQFLAPVIAVVVVLGIANVTLLNPLAAHLYTKYERMDAGMDSGVANPLALSDGGLWLRENNPEGQVVMHAQGVRQVDNALRMTGVTIFRYGPDRRFESRIDAETAGLREGALVLTSVVTTYPGRVGERAETLEVPSNLTLPKIQDSFSPPETVSFWELPAFITFFEAAGFSAHAHRLHWHSLIASPLLLIAMVLMGAVFSLKPSQRSVNWLFRIVGAVAAGFGVFFFSKITYTLGLSQTLPVNLAAWSPALVTTMVALAALFHLEDG | failed
MLRTFVLMFFTSLSFIVAYYITFSPLILAEFSHALIDFLTIAFSIIAIKFIGENEVAEGRFSYGLHRLEVVVAMINLIIIILLSLAVAYTSVTSLFKETTNDSFTLIVSSALASFLTYFASPKERNDLGKKGLYMHILSDFLGYIMGFIIGILIFISGIRELDPVGAIILVILNFALSIPLLKEAFLIFMEGSSVKIDHIMEELTKISPSVHHLHVWSICDHVKVATLHVKVSPNLTIAEADKIRGSICDFLKEKYGISHVTVQFETNVDD | failed
MKCYLTGCIAGPLAFSEDLELIDYEPFPVDEIPGRLAESQMGGVSPEERIMLERLTPEYDEVVVEASPSPEYAGFRNLRFEVPSRAGIHLRENLEDILAEILDMPAGDFIHDALMSVARERLRESLRETDRFIIQSINALDELDEETGKLIERLREWYSLHFPELDGIKSHEQYVELIAEYGDRDQILKNFRMDVDESLGSDITSEDLHILRGLAESIRGLQRLREETERYIDIKMEKLAPNLRALAGSNVGARLIAHAGGLRELAMLPSSTIQVLGAEKALFRHLKSGAKPPKHGVIFQHPSIRSSPWWIRGKVARLLAGKIAIAVRKDVFSREFDPGIVESFNERFEAIKSNNPKPPARKKGFRKKRK | failed
GYDHKKMGITAKGAWVGVQRHFRERDINVQQDSISVIGIGDMAGDVFGNGLLMSDKLQLVAAFNHLHIFIDPNPEPASSFAERERLFNLPRSSWTDYDTSIMSAGGGIFPRSLKSIAITEQMKARFDIKADKLTPTELLHALLKAPVDLLWNGGIGTYVKSSEESHADVGDKANDALRVDGNELRCKVVGEGGNLGMTQLGRVEFGLNGGATNTDFIDNAGGVDCSDHEVNIKILLNEVVQAGDMTEKQRNQLLESMTDEVGHLVLGNNYKQTQALSLAARRAYERIAEYKRLMSDLEARGKLD | not failed
MTGLINAIPATNKDEYKNVGVYIEHRGDELKRPSIEMIGIGKQLARKVNEKLICVVIGDKVDGIAKEVGEYGCDIVLAAESPELAEYRTMPYAEIIGGYIQEYKPNIFLLAATRNGRDLASRIAVKSRTGITADCTVLDIDENRTLLANRPTYGESTLAEILCRNHRPQMATARPGIFPPAEKEKDHKYEVIKKKVDVDKKLLGKQILKFI | not failed
MSLDSDPDTLVVHTQLGTTAPGSPTYLAAVDRFREENPGVKIKNLVNGDDLAQVYETSRLARKEADVVMVNLYDKTLAWTDVGATVDVKPYLDDWGLRGRVLPAALADWTDDEGRVRAFPYFATNWPVAYNRALLDRAGVDAIPTTGDQLIAAARKLRAKGIAPVTVGGNDWTGQKLLAQIIQTFLSQDEARHVYSTGDFGVRGARLGIEYFAHLRDAGVFADKAQGLTSDSMTTQFNTEEAAVQSAMSSALAKVPEKVAGHTEVGGWPLADGAAHDGPTVIRAYTLIGFWISPNGVRKIEQVEKFLRFMYRPDVVARFVTESGRDMALRTDAVSTGFPLVGAAQRLGSEVSQVLLPDVYVPPAAAQPLITATSTSFTRGTSPARVRAALESAYRSVEGHHHHHH | not failed
MKKIHLNKWKHKTSLYLMLFCLSLPLALTPLSVSATEKETESEQTAPTSQKDASETTSETQTVESSTNDQNQNNSTISLPESSSTTSLAPSESLTSDSKKLAQKEEVVASTTVAEPKAAASSTISVPDPNLKQTILSTLGLATTAELTQTDMDKLTNLTLNSVDIYSLVGLEHATNLSSIYINVNNKITDFTPLESLTKLTFVTLQTSSLTSDNFPNLTASQGLTNLSIGGTSVDNSVLAKIVNLKALVRLYMDSNMNITNIEPLKVLPNLKSLSVQFCGITDFTVIKDFPIMSDLAAFGQNTGRNDPPTTVTRSSLKYNEDEQSVYIPFSMMPNRMTNFDGYIPPFSTSNSASNTYFDFNGTQLPASRLQIDDNGITINSVSPEEYQGIKSFEYNARLNNPAGTYAVPDGYTFYAISSGTYLHQFDVVDDGAPVTVKYQDENGQELAPSELLNGYVGATYNSKELSFQGYSLIKVDGDATGKFTDSPQTVTYIYQKNAKLLGQVTVKYIDTDGKALFGDVIQTGNIGETYHTEKKELTGYTFKNIIGNASGQYTNSPQTVTYVYEKNANPNKPEEVIPDSSDKNNVNPDSRENETTKGSKTVKDKESVVTSKEKNLPETGDKEQGMKKITLFGSFLLILGSLVLFIRFRKVD | failed
MSLTRTQTYRATIESDIESYLKKAIPIRAPESVFEPMHHLTFAAPRTSASALCVAACELVGGDRSDAMAAAAAVHLMHVAAYTHENLPLTDGPMSKSEIQHKFDPNIELLTGDGIIPFGLELMARSMDPTRNNPDRILRAIIELTRVMGSEGIVEGQYHELGLNQLNDLELIEYVCKKKEGTLHACGAACGAILGGCDEDKIEKLRRFGLYVGTVQGLLGKNRSGFEGRIKELKELAVKELESFGGEKIELIRGVFELEHSLAGVEGHHHHHH | not failed
MHALYITHPQVKIDPAVPVPEWGLSERGAERAREASRLPWAKALRRIVSSAETKAIETAHMLAETSGAAIEIIEAMHENDRSATGFLPPPEFEKAADWFFAHPEESFQGWERAIDAQARIVEAVKAVLDRHDARQPIAFVGHGGVGTLLKCHIEGRGISRSKDQPAGGGNLFRFSIAEFSLAAASPTCDWTAMETWQG | not failed
MTVQTAIFDLIKQAKTIIIHRHQRPDPDAIGSQLGLAAIIKASFPAKRVLTPGKQYHGFDWLGQMDEVTEADYQDALVLILDTANQPRIDGELWNQGKTIVKIDHHPNDDAFGDPQWVDVDASSTSEMIYNWYAPLAAELTLTANAARLLYAGIVGDTGRFLYSATKPSTMRAAAALMEAGADAEAVNRIEDTITLPVARLSAYVYEHLTQLDSGAAYVILTNAILDSFAIGDASTAGVVPLPGRIDTVKCWAIFVQQKEGDFRIRLRSKGPSINGVAKNHDGGGHALASGAKAKDQQEIETVVRELDQVASQYEKEVLEHHHHHH | failed
